Columns and labels:
[1] = target: Spike protein of wild-type virus isolate USA-WA1/2020 (SARS-CoV-2, UniProt P0DTC2 14-1273); experiment: cell-based or functional assay
[2] = target: T1, Receptor Binding Domain (RBD) of the SARS-COV-2 protein S (SARS-CoV-2, UniProt P0DTC2 319-541); experiment: ELISA, purified nanobody, RBD coated
[3] = target: Peptide 59 of the Spike peptide array (B.E.I resources NR-52402); experiment: peptide array ELISA, 100 ng peptide coated, 100 ng nanobody per well
[4] = target: Peptide 84 of the Spike peptide array (B.E.I resources NR-52402); experiment: as above
[5] = target: Peptide 125 of the Spike peptide array (B.E.I resources NR-52402); experiment: as above
[6] = target: Peptide 175 of the Spike peptide array (B.E.I resources NR-52402); experiment: as above
[7] = target: T1, Receptor Binding Domain (RBD) of the …; experiment: phage ELISA, RBD coated
[8] = target: Peptide 16 of the Spike peptide array (B.E.I resources NR-52402); experiment: peptide array ELISA, 100 ng peptide coated, 100 ng nanobody per well
[9] = target: T1, Receptor Binding Domain (RBD) of the …; experiment: as told in Example 8

Row | Binder | EC50 [2] [nM] | other results
1 | NbCoV_39 (VHH, also called Nb 39; 39A) VHH: QVQLQESGGGLVQAGGSLRLSCAASGRTFSSTAMAWFRQAPGQEREFVATISWSGDNTKYADSVKGRFTISRDNAKNTVYLQMNSLKPEDTAVYYCAADPGNFGVPIEYFMFDYWGQGTQVTVSS | 0.29 | wildtype VN, plaque reduction assay, neutralizing activity [1]: 0.244 nM; OD 405 nm [3]: 0.423 OD 405 nm
2 | NbCoV_145 (VHH, also called Nb 145) VHH: QVQLQESGGGLVQAGGSLRLSCAASGRTFSSYAMGWFRQAPGKEREFVAVINWSGANTRYTDSVKGRFSISRDNAKNTVYLQMNSLKPEDTAVYYCAADPGNFGVPIEHFMYDYWGQGTQVTVSS | 4.63 | 
3 | NbCoV_43 (VHH, also called Nb 43) VHH: QVQLQESGGGLVQPGGSLRLSCVASGSIGSINHMAWFRKPPGKERELVASITLAPDEIAYYADSVKGRFAISKGNAQPTLYLQMNSLKPEDTAVYYCHFRQIRANAHDVYWGQGTQVTVSS | 0.18 | wildtype VN, plaque reduction assay, neutralizing activity [1]: 3.12 nM; OD 405 nm [4]: 0.555 OD 405 nm
4 | NbCoV_104 (VHH, also called Nb 104) VHH: QVQLQESGGGLVQPGGSLRLSCAASGSIFRVMGWYRQAPGKEHDLVATITRSGDTNYADSVKGRFTISRDNTKNTVYLQMNNLKPEDTDVYYCYARNFVGHNPDVWGQGTQVTVSS | 5.45 | wildtype VN, plaque reduction assay, neutralizing activity [1]: 0.977 nM; OD 405 nm [5]: 0.731 OD 405 nm; OD 405 nm [6]: 0.503 OD 405 nm
5 | NbCoV_29 (VHH) VHH: QVQLQESGGGLVQAGGSLRLSCAASGRTLYAMGWFRQAPGKEREFVAAKSWNGGNTYYADSVKGRFTISKDNAKNTVYLQMNSLKPEDTAVYNCAASSWDSRGSSNYVHYDYWGQGTQVTVSS | 55.9 | 
6 | NbCoV_45 (VHH, also called Nb 45; Nb45) VHH: QVQLQESGGGLVQAGGSLRLSCVASGRTLYAMGWFRQAPGKEREFVAATSWNGGNTNYGESVKGRFTISKDNAKNTVYLQMNSLKPEDTAVYNCAASSRDSRGTSTYASYDYWGQGTQVTVSS |  | binding result [7]: no binding
7 | NbCoV_71 (VHH) VHH: QVQLQESGGGLVQAGGSLRLSCAASGLTFGYTATAWFRQAPGKEREFVARIFKRGGYTYYSDSVKGRFTVSRDSAKDTVYLQMNSLKSEDTAVYYCAVAREWSDLDFRDGYDYWGQGTQVTVSS | 1.63 | 
8 | NbCoV_110 (VHH, also called Nb 110) VHH: QVQLQESGGGLVQAGDSLRLSCAASGRTFGSHATAWFRQAPGKEREFVARIFWRGDYTYYADSVKGRFTISRDSAKNTVYLQMNSLKSEDTAVYYCAVARSWSDLDFENGYDYWGQGTQVTVSS | 32.4 | OD 405 nm [8]: 0.64 OD 405 nm
9 | NbCoV_125 (VHH) VHH: QVQLQESGGGLVQPGGSLRLSCAASAHFFSGGAMGWYRQAPGKERELVATITGGGDTNYAEHVKGRCTISSDISDNTVYLQMISLKPDDTAVYYCYARDLLQHPFWGQGTQVTVSS |  | binding result [7]: binds; OD 405 nm [4]: 0.214 OD 405 nm
10 | NbCoV_136 (VHH) VHH: QVQLQESGGGLVQTGGSLRLSCAASGRTASSYTMGWFRQAAGKERDFVAAIRESLGYTNYADSVKGRFTISRDNANNTVYLQMNSLKPEDTAVYYCAAYEGIRYSSTRADFYNYWGQGTQVTVSS | 13.4 | 
11 | NbCoV_10 (VHH, also called Nb 10; 10 Mebus) VHH: QVQLQESGGGLVQAGGSLHLSCTASGSENMLRWYAVGWYRQAPGKQRELVATITRGGSTNVVDSVKGRFTISRDNAKNMVALQMNSLKPEDTAVYSCAAAYAPYTDYHPVEYVYWGQGTQVTVSS |  | binding result [9]: binds; OD 405 nm [4]: 0.226 OD 405 nm
12 | NbCoV_31 (VHH) VHH: QVQLQESGGGLVQAGGSLRLSCAASGRTFSRSAVAWFRQAPGKEREFVAGISWSGRNVNYANSVKGRFTISRDSTKNTVYLQMNSLKPEDTAVYYCATSQFGSGTSDSEQYDYWGQGTQVTVSS | 137 | 
13 | NbCoV_32 (VHH) VHH: QVQLQESGGGSVQPGGSLRLSCAVSRSRFSLVTMGWYRQAPGKERELVAAIAIGGSTKYADSVKGRFTISRDNAKSTVYLQMNSLQPEDTAVYYCNEARVYDSNWYPRDYWGQGTQVTVSS | 83.6 | 
14 | NbCoV_44 (VHH) VHH: QVQLQESGGGLVQAGGSLRLSCAASGRTVSYRVMGWFRQAPGKEREFVAFVDWSSGTAYYAESVQGRFIMSRDTADNTGFLQMNNLKPEDTAVYYCAADPFFRVIAYSDPKRYSYWGQGTQVTVSS | 16.8 | 
15 | NbCoV_27 (VHH) VHH: QVQLQESGGGLVQPGGSLRLSCAASGSGFSLRVMGWYRQAPGKEHRLVATISRTGITNYADSVKGRFTISRDNAKDTVYLQMNNLKPEDTDVYYCYARNFVGDDFNLWGQGTQVTVSS | 0.7 | 
16 | NbCoV_48 (VHH) VHH: QVQLQESGGGLVQPGGSLRLSCVASRSIGSINHMAWYRKAPGKERELVASITLSPSETVYYTEVVKGRFAISKGNAQNTLYLQMNSLKPEDTAVYYCHFRQIRAIADDVYWGQGTQVTVSS | 1.78 | 
17 | NbCoV_78 (VHH) VHH: QVQLQESGGGLVQAGGSLRLSCVASGRAFSSSSMGWFRQAPGKEREFVAAIRWSDDNTVYVDSVKGRFAISRDNAKNTVYLQMNSLKPEDTAVYYCAATGLGYRYAVLESRSEYRYWGQGTQVTVSS | 16.6 | 
18 | NbCoV_46 (VHH) VHH: QVQLQESGGGLVQAGDSLRLSCAASGRTFSSLSAGWFRQAPGKEREFVAAIRWSDYNTYYVDSVKGRFTISRDNAKNTVYLQMDSLKPEDTAVYYCAATALGYRYASLESRNEYRYWGQGTQVTVSS |  | binding result [7]: no binding

— patent US20240254202A1 (CONSEJO NACIONAL DE INVESTIGACIONES CIENT FICAS Y T CNICAS …, published 2024)
